Data on two molecules can be found in patent US20040248207A1 (UNIVERSITY COLLEGE LONDON, published 2004).

Holding throughout (experiment): GST pull-down on glutathione-sepharose beads, anti-GFP immunoblot
For orientation: Immunoblotting shows a protein as a band on a membrane.

One test deals with T1, GST control protein (UniProt P08515 1-218 = GST).
T1 construct: Negative control on glutathione-sepharose beads; also called purified GST
The protocol:
(§1) To examine the binding of p11 to the N-terminus of Naᵥ1.8 in vitro, glutathione-sepharose beads pre-incubated with purified GST, serving as control, or GST-SNS(I) were incubated at 4° C. overnight with GFP-p11 fusion protein or GFP protein extracted from transfected COS cells in PBS. After intensive washing with ice-cold PBS, the bound proteins were denatured in sample buffer (100 mM Tris-HCl pH 6.8, 4% SDS, 0.2% Bromophenol Blue, 20% Glycerol. 200 mM DDT), separated by 10% SDS-PAGE, and transferred to nitrocellulose membrane (Hybond ECL; Amersham Pharmacia Biotech). The membrane was blocked for 1 h in 5% nonfat dry mirnl in PBS-T at room temperature (0.1% Tween-20 in PBS, pH7.4). Primary anti-GFP antibody (Santa Cruz Biotechnology) in 1:800 dilution was applied for 1 hr at room temperature. Secondary antibody (horseradish peroxidase-conjugated sheep anti-mouse IgG, Amersham Pharmacia Biotech) in 1:2000 dilution was applied for 1 hr at room temperature. ECL Western Blotting Detection Reagents (Amersham Pharmacia Biotech) was applied according to the manufacturer's instructions and the blot was exposed to BioMax film (Kodak).
(§2) GFP/p11-1, -2, -3 fusion protein were expressed in COS-7 cells by transient transfection. The COS cell lysates were incubated with affinity-purified GST-SNS(I), the N-terminal domain of Naᵥ1.8 fused to GST, immobilized on glutathione-sepharose beads and were examined by immunoblotting with anti-GFP antibodies.
(§3) GFP/p11-1A, p11-2, p11-2-1, and p11-2-2 fusion proteins were expressed in COS-7 cells by transient transfection. The COS cell lysates were incubated with affinity-purified GST-SNS(I), the N-terminal domain of Naᵥ1.8 fused to GST, immobilized on glutathione-sepharose beads and were examined by immunoblotting with anti-GFP antibodies. […] These protein fragments correspond to amino acids 1-51, 33-51, 52-77 respectively. GST-SNS(I) efficiently pulled down cell lysate p11-2.

A further test addresses T2, GFP/p11-1 fusion protein (rat).
T2 construct: Used as COS-7 cell lysate; not shown: GFP reporter at the N end and its junction; vector-encoded C-terminal tail after the XbaI site (reverse primer p11-1-3' has no stop codon)
T2 chain: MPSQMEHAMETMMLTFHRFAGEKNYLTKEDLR
The protocol: as §1, §2, §3

Test [1] concerns the target T3, GFP/p11-1A fusion protein (rat, UniProt P05943 1-51).
T3 construct: Used as COS-7 cell lysate; not shown: GFP reporter at the N end and its junction; vector-encoded C-terminal tail after the XbaI site (reverse primer p11-2-1R has no stop codon)
T3 sequence: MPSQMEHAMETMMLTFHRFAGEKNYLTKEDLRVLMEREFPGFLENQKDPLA
On the procedure: as §1, §2, §3

T1 sequence (P08515 whole entry): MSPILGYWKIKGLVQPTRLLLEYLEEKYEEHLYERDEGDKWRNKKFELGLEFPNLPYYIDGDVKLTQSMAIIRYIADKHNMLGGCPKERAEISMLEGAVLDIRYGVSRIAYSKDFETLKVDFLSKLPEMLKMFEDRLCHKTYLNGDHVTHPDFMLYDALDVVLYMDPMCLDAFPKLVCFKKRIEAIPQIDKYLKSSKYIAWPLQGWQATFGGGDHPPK

B1: GFP-p11 fusion protein (other, not shown: large carriers; small tags and cut ends)
chain: MPSQMEHAMETMMLTFHRFAGEKNYLTKEDLRVLMEREFPGFLENQKDPLAVDKIMKDLDQCRDGKVGFQSFLSLVAGLIIACNDYFVVHMKQKK
notes: Expressed from pBS-GFP/p11 in COS-7 cells and used as cell extract
Turning to B1, in the test with GST control protein, the binding result is recorded as “no binding”.

B2: GST/Nav1.8 N-terminus fusion protein, designated GST-SNS(I) (other)
chain: MELPFASVGTTNFRRFTPESLAEIEKQIAAHRAAKKARTKHRGQEDKGEKPRPQLDLKDCNQLPKFYGELPAELVGEPLEDLDPFYSTHRTFMVLNKSRTISRFSATWALWLFSPFNLIRRTAIKVS
notes: also called GST/SNS(I) fusion protein; not shown: glutathione-S-transferase (GST) as encoded by vector pGEX-5X-1 (Amersham Pharmacia Biotech); species and limits not stat; vector-encoded residues between GST and the EcoRI site of pGEX-5X-1
As for B2, the binding result (in the test with GFP/p11-1 fusion protein; in test [1]) was “no binding” each time.
